IntAct's records for PubMed 30559189

B1: Lipoprotein lipase (Homo sapiens), P06858 (parent)
chain: MESKALLVLTLAVWLQSLTASRGGVAAADQRRDFIDIESKFALRTPEDTAEDTCHLIPGVAESVATCHFNHSSKTFMVIHGWTVTGMYESWVPKLVAALYKREPDSNVIVVDWLSRAQEHYPVSAGYTKLVGQDVARFINWMEEEFNYPLDNVHLLGYSLGAHAAGIAGSLTNKKVNRITGLDPAGPNFEYAEAPSRLSPDDADFVDVLHTFTRGSPGRSIGIQKPVGHVDIYPNGGTFQPGCNIGEAIRVIAERGLGDVDQLVKCSHERSIHLFIDSLLNEENPSKAYRCSSKEAFEKGLCLSCRKNRCNNLGYEINKVRAKRSSKMYLKTRSQMPYKVFHYQVKIHFSGTESETHTNQAFEISLYGTVAESENIPFTLPEVSTNKTYSFLIYTEVDIGELLMLKLKWKSDSYFSWSDWWSSPGFAIQKIRVKAGETQKKVIFCSREKVSHLQKGKAPAVFVKCHDKSLNKKSG
partner: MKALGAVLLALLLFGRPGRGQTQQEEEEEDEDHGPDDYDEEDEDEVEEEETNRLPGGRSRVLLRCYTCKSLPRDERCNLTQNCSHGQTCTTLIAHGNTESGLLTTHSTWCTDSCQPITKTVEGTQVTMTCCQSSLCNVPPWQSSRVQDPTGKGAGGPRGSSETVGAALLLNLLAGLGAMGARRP
B2: Glycosylphosphatidylinositol-anchored high density lipoprotein-binding protein 1 (Homo sapiens), Q8IV16 (parent)
chain: B1 partner
partner: B1 chain

Variants of: B1
Details: with hdbp1_human GPIHBP1, Q8IV16

| Variant | effect of a mutation on the interaction |
| --- | --- |
| MESKALLVLTLAVWLQSLTASRGGVAAADQRRDFIDIESKFALRTPEDTAEDTCHLIPGVAESVATCHFNHSSKTFMVIHGWTVTGMYESWVPKLVAALYKREPDSNVIVVDWLSRAQEHYPVSAGYTKLVGQDVARFINWMEEEFNYPLDNVHLLGYSLGAHAAGIAGSLTNKKVNRITGLDPAGPNFEYAEAPSRLSPDDADFVDVLHTFTRGSPGRSIGIQKPVGHVDIYPNGGTFQPGCNIGEAIRVIAERGLGDVDQLVKCSHERSIHLFIDSLLNEENPSKAYRCSSKEAFEKGLCLSCRKNRCNNLGYEINKVRAKRSSKMYLKTRSQMPYKVFHYQVKIHFSGTESETHTNQAFEISLYGTVAESENIPFTLPEVSTNKTYSFLIYTEVDIGELLMLKLKWKSDSYFSWSDWWSSPGFAIQKIRVKAGETQKKVIFSSREKVSHLQKGKAPAVFVKCHDKSLNKKSG [C445S] | disrupting interaction strength |
| MESKALLVLTLAVWLQSLTASRGGVAAADQRRDFIDIESKFALRTPEDTAEDTCHLIPGVAESVATCHFNHSSKTFMVIHGWTVTGMYESWVPKLVAALYKREPDSNVIVVDWLSRAQEHYPVSAGYTKLVGQDVARFINWMEEEFNYPLDNVHLLGYSLGAHAAGIAGSLTNKKVNRITGLDPAGPNFEYAEAPSRLSPDDADFVDVLHTFTRGSPGRSIGIQKPVGHVDIYPNGGTFQPGCNIGEAIRVIAERGLGDVDQLVKCSHERSIHLFIDSLLNEENPSKAYRCSSKEAFEKGLCLSCRKNRCNNLGYEINKVRAKRSSKMYLKTRSQMPYKVFHYQVKIHFSGTESETHTNQAFEISLYGTVAESENIPFTLPEVSTNKTYSFLIYTEVDIGELLRLKLKWKSDSYFSWSDWWSSPGFAIQKIRVKAGETQKKVIFCSREKVSHLQKGKAPAVFVKCHDKSLNKKSG [M404R] | disrupting interaction strength |

Variants of: B1
Details: with hdbp1_human GPIHBP1, Q8IV16
Remark: another data set of the same source

| Variant | effect of a mutation on the interaction |
| --- | --- |
| MESKALLVLTLAVWLQSLTASRGGVAAADQRRDFIDIESKFALRTPEDTAEDTCHLIPGVAESVATCHFNHSSKTFMVIHGWTVTGMYESWVPKLVAALYKREPDSNVIVVDWLSRAQEHYPVSAGYTKLVGQDVARFINWMEEEFNYPLDNVHLLGYSLGAHAAGIAGSLTNKKVNRITGLDPAGPNFEYAEAPSRLSPDDADFVDVLHTFTRGSPGRSIGIQKPVGHVDIYPNGGTFQPGCNIGEAIRVIAERGLGDVDQLVKCSHERSIHLFIDSLLNEENPSKAYRCSSKEAFEKGLCLSCRKNRCNNLGYEINKVRAKRSSKMYLKTRSQMPYKVFHYQVKIHFSGTESETHTNQAFEISLYGTVAESENIPFTLPEVSTNKTYSFLIYTEVDIGELLMLKLKWKSDSYFSWSDWWSSPGFAIQKIRVKAGETQKKVIFYSREKVSHLQKGKAPAVFVKCHDKSLNKKSG [C445Y] | disrupting interaction strength |

Variants of: B2
Details: with lipl_human LPL, P06858

| Variant | effect of a mutation on the interaction |
| --- | --- |
| MKALGAVLLALLLFGRPGRGQTQQEEEEEDEDHGPDDYDEEDEDEVEEEETNRLPGGRSRVLLRCYTCKSLPRDERCNLTQNCSHGQTCTTLIAHGNTESGLLTTHSTSCTDSCQPITKTVEGTQVTMTCCQSSLCNVPPWQSSRVQDPTGKGAGGPRGSSETVGAALLLNLLAGLGAMGARRP [W109S] | disrupting interaction strength |
